Reference: doi:10.1101/2021.12.21.473719 (bioRxiv, 2021)

Biological target: T1, POPDC1-Myc (Popeye domain-containing protein 1, Myc-tagged) (mouse, UniProt Q9ES83 1-358)
T1 sequence (looked up): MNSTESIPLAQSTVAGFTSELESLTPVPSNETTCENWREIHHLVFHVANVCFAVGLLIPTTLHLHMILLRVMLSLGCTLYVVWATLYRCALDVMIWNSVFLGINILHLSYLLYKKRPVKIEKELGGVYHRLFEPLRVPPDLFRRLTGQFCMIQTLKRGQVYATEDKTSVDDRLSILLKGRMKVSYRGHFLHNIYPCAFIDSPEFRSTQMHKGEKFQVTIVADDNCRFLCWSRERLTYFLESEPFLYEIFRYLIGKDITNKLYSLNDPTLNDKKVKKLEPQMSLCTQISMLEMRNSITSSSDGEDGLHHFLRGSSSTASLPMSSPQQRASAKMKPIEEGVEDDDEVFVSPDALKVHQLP
Test: co-IP

B1: AC1 (adenylyl cyclase type 1), non-tagged (enzyme)
chain: not shown
- fold Ca2+/calmodulin-stimulated AC activity over IgG controls: 1.59 fold
